Measured values reported in publication PMC7275062.

B1: Plasmodesmata-located protein 5 (PDLP5), EGFP or mCherry fusion [Arabidopsis thaliana] / Plasmodesmata-located protein 5 (PDLP5), EGFP or mCherry fusion [Arabidopsis thaliana] (parent)
chain 1: SPTDNYIYAVCSPAKFSPSSGYETNLNSLLSSFVTSTAQTRYANFTVPTGKPEPTVTVYGIYQCRGDLDPTACSTCVSSAVAQVGALCSNSYSGFLQMENCLIRYDNKSFLGVQDKTLILNKCGQPMEFNDQDALTKASDVIGSLGTGDGSYRTGGNGNVQGVAQCSGDLSTSQCQDCLSDAIGRLKSDCGMAQGGYVYLSKCYARFSVGGSHARQTPGPNFGHEGEKGNKDDNGVGKTLAIIIGIVTLIILLVVFLAFVGKCCRKLQDEKWCK
chain 2: B1 chain 1
B2: Plasmodesmata-located protein 5 (PDLP5), EGFP or mCherry fusion [Arabidopsis thaliana] / itself (parent)
chain: B1 chain 1

Variants of: B1
Experiment: FRET
Settings: with Plasmodesmata-located protein 5 (PDLP5), at plasmodesmata, PDLP5-EGFP donor and PDLP5VV-mCherry acceptor, n=21, parent: 20, read off a plot

| response (% FRET efficiency) | Variant |
| --- | --- |
| 16 | chain 1 SPTDNYIYAVCSPAKFSPSSGYETNLNSLLSSFVTSTAQTRYANFTVPTGKPEPTVTVYGIYQCRGDLDPTACSTCVSSAVAQVGALCSNSYSGFLQMENCLIRYDNKSFLGVQDKTLILNKCGQPMEFNDQDALTKASDVIGSLGTGDGSYRTGGNGNVQGVAQCSGDLSTSQCQDCLSDAIGRLKSDCGMAQGGYVYLSKCYARFSVGGSHARQTPGPNFGHEGEKGNKDDNGVGKTLVIIIVIVTLIILLVVFLAFVGKCCRKLQDEKWCK [chain 1 A241V G245V] |

Same assay, conditions: with Plasmodesmata-located protein 5 (PDLP5), at plasmodesmata, PDLP5VV-EGFP donor and PDLP5-mCherry acceptor, n=15, parent: 20, read off a plot

| response (% FRET efficiency) | Variant |
| --- | --- |
| 19 | chain 1 SPTDNYIYAVCSPAKFSPSSGYETNLNSLLSSFVTSTAQTRYANFTVPTGKPEPTVTVYGIYQCRGDLDPTACSTCVSSAVAQVGALCSNSYSGFLQMENCLIRYDNKSFLGVQDKTLILNKCGQPMEFNDQDALTKASDVIGSLGTGDGSYRTGGNGNVQGVAQCSGDLSTSQCQDCLSDAIGRLKSDCGMAQGGYVYLSKCYARFSVGGSHARQTPGPNFGHEGEKGNKDDNGVGKTLVIIIVIVTLIILLVVFLAFVGKCCRKLQDEKWCK [chain 1 A241V G245V] |

Variants of: B2
Experiment: FRET
Settings: with itself; at plasmodesmata; EGFP-fused donor and mCherry-fused acceptor; n=12; parent: 20; read off a plot

| response (% FRET efficiency) | Variant |
| --- | --- |
| 17 | SPTDNYIYAVCSPAKFSPSSGYETNLNSLLSSFVTSTAQTRYANFTVPTGKPEPTVTVYGIYQCRGDLDPTACSTCVSSAVAQVGALCSNSYSGFLQMENCLIRYDNKSFLGVQDKTLILNKCGQPMEFNDQDALTKASDVIGSLGTGDGSYRTGGNGNVQGVAQCSGDLSTSQCQDCLSDAIGRLKSDCGMAQGGYVYLSKCYARFSVGGSHARQTPGPNFGHEGEKGNKDDNGVGKTLVIIIVIVTLIILLVVFLAFVGKCCRKLQDEKWCK [chain 1 A241V G245V] |
